Source: patent publication US20210388087A1 (Chugai, published 2021)
Positions count from the first letter of the chain named. Names may count otherwise. Blank lines part the entries; values can stand above or below the binder they belong to.

How the values were obtained:
[1] = target: T1, CD3 epsilon homodimer protein (UniProt P07766 23-126); assay: SPR (Biacore T200), CD3 epsilon homodimer on CM4 chip, one-arm antibody as analyte, 25 C;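 also: homodimer attached to the sensor surface via amine coupling, HBS-EP+ used as running buffer during binding runs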
T1 construct: immobilized on Sensor chip CM4 by amine coupling; also called CD3 (CD3 epsilon)
T1 sequence (P07766 23-126): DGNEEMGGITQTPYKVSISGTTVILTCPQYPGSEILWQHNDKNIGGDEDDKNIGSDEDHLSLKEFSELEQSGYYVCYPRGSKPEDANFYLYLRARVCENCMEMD
Description: An appropriate amount of CD3 epsilon homodimer protein was immobilized onto Sensor chip CM4 (GE Healthcare Japan Corp.) by the amine coupling method. Then, the antibody having an appropriate concentration was injected thereto as an analyte and allowed to interact with the CD3 epsilon homodimer protein on the sensor chip. Then, the sensor chip was regenerated by the injection of 10 mmol/L glycine-HCl (pH 1.5). The assay was conducted at 25 degrees C., and HBS-EP+(GE Healthcare Japan Corp.) was used as a running buffer. […] Each parameter was calculated using Biacore T200 Evaluation Software (GE Healthcare Japan Corp.).

[2] = target: T2, CD3 epsilon homodimer protein (UniProt P07766 23-126); assay: SPR, CD3 epsilon homodimer on chip, one-arm antibody as analyte;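 also: surface plasmon resonance at 25 °C with CD3 epsilon homodimer amine-coupled to a CM4 sensor chip, antibody injected as analyte, HBS-EP+ as running buffer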
T2 construct: also called CD3 (CD3 epsilon)
T2 sequence (P07766 23-126): as above

ratio of amounts bound (altered form / CE115HA000) [1]: 0.16
B1: CE115HA000 Y97A one-arm antibody (antibody, human IgG1, kappa, L234A L235A, N297A, name in Kabat numbering)
heavy: QVQLVESGGGVVQPGRSLRLSCAASGFTFSNAWMHWVRQAPGKGLEWVAQIKAKSNNYATYYAESVKGRFTISRDDSKNSLYLQMNSLKTEDTAVYYCRYVHAGAYYGVDAWGQGTTVTVSSASTKGPSVFPLAPSSKSTSGGTAALGCLVKDYFPEPVTVSWNSGALTSGVHTFPAVLQSSGLYSLSSVVTVPSSSLGTQTYICNVNHKPSNTKVDKKVEPKSCDKTHTCPPCPAPEAAGGPSVFLFPPKPKDTLMISRTPEVTCVVVDVSHEDPEVKFNWYVDGVEVHNAKTKPREEQYASTYRVVSVLTVLHQDWLNGKEYKCKVSNKALPAPIEKTISKAKGQPREPQVYTLPPSRCELTKNQVSLSCAVKGFYPSDIAVEWESNGQPENNYKTTPPVLDSDGSFFLVSKLTVDKSRWQQGNVFSCSVMHEALHNHYTQKSLSLSPDYKDDDDK
chain: EPKSSDKTHTCPPCPAPELLGGPSVFLFPPKPKDTLMISRTPEVTCVVVDVSHEDPEVKFNWYVDGVEVHNAKTKPREEQYNSTYRVVSVLTVLHQDWLNGKEYKCKVSNKALPAPIEKTISKAKGQPREPQVCTLPPSRDELTKNQVSLWCLVKGFYPSDIAVEWESNGQPENNYKTTPPVLDSDGSFFLYSKLTVDKSRWQQGNVFSCSVMHEALHNRYTQKSLSLSP
light: DIVMTQSPLSLPVTPGEPASISCRSSQSLVHSNRNTYLHWYQQKPGQAPRLLIYKVSNRFSGVPDRFSGSGSGTDFTLKISRVEAEDVGVYYCGQGTQVPYTFGQGTKLEIKRTVAAPSVFIFPPSDEQLKSGTASVVCLLNNFYPREAKVQWKVDNALQSGNSQESVTEQDSKDSTYSLSSTLTLSKADYEKHKVYACEVTHQGLSSPVTKSFNRGEC

KD ratio (KD of CE115HA000/KD of altered form) [2]: 25
B2: CE115HA000 H35A (antibody, human IgG1, kappa, L234A L235A, N297A, name in Kabat numbering)
heavy: B1 heavy with H35A, A103Y
chain: B1 chain
light: B1 light
notes: one-arm antibody

ratio of amounts bound (altered form / CE115HA000) [1]: 0.52
B3: CE115HA000 Y100D one-arm antibody (antibody, human IgG1, kappa, L234A L235A, N297A, name in Kabat numbering)
heavy: B1 heavy with A103Y, Y106D
chain: B1 chain
light: B1 light

KD ratio (KD of CE115HA000/KD of altered form) [2]: 1.35
B4: CE115HA000 A52aD (antibody, human IgG1, kappa, L234A L235A, N297A, name in Kabat numbering)
heavy: B1 heavy with A53D, A103Y
chain: B1 chain
light: B1 light
notes: one-arm antibody

ratio of amounts bound (altered form / CE115HA000) [1]: 0.64
B5: CE115HA000 Y100aS one-arm antibody (antibody, human IgG1, kappa, L234A L235A, N297A, name in Kabat numbering)
heavy: B1 heavy with A103Y, Y107S
chain: B1 chain
light: B1 light

ratio of amounts bound (altered form / CE115HA000) [1]: 0.8
B6: CE115HA000 Y100Q one-arm antibody (antibody, human IgG1, kappa, L234A L235A, N297A, name in Kabat numbering)
heavy: B1 heavy with A103Y, Y106Q
chain: B1 chain
light: B1 light

ratio of amounts bound (altered form / CE115HA000) [1]: 0.18
B7: CE115HA000 Y97S one-arm antibody (antibody, human IgG1, kappa, L234A L235A, N297A, name in Kabat numbering)
heavy: B1 heavy with A103S
chain: B1 chain
light: B1 light

ratio of amounts bound (altered form / CE115HA000) [1]: 0.9
B8: CE115HA000 Y100A one-arm antibody (antibody, human IgG1, kappa, L234A L235A, N297A, name in Kabat numbering)
heavy: B1 heavy with A103Y, Y106A
chain: B1 chain
light: B1 light

ratio of amounts bound (altered form / CE115HA000) [1]: 0.31
B9: CE115HA000 Y100aD one-arm antibody (antibody, human IgG1, kappa, L234A L235A, N297A, name in Kabat numbering)
heavy: B1 heavy with A103Y, Y107D
chain: B1 chain
light: B1 light

ratio of amounts bound (altered form / CE115HA000) [1]: 0.27
B10: CE115HA000 Y97R one-arm antibody (antibody, human IgG1, kappa, L234A L235A, N297A, name in Kabat numbering)
heavy: B1 heavy with A103R
chain: B1 chain
light: B1 light

KD ratio (KD of CE115HA000/KD of altered form) [2]: 0.82
B11: CE115HA000 A52aS (antibody, human IgG1, kappa, L234A L235A, N297A, name in Kabat numbering)
heavy: B1 heavy with A53S, A103Y
chain: B1 chain
light: B1 light
notes: one-arm antibody

KD ratio (KD of CE115HA000/KD of altered form) [2]: 2.11
B12: CE115HA000 A32Y (antibody, human IgG1, kappa, L234A L235A, N297A, name in Kabat numbering)
heavy: B1 heavy with A32Y, A103Y
chain: B1 chain
light: B1 light
notes: one-arm antibody

ratio of amounts bound (altered form / CE115HA000) [1]: 1.07
B13: CE115HA000 Y100K one-arm antibody (antibody, human IgG1, kappa, L234A L235A, N297A, name in Kabat numbering)
heavy: B1 heavy with A103Y, Y106K
chain: B1 chain
light: B1 light

ratio of amounts bound (altered form / CE115HA000) [1]: 0.24
B14: CE115HA000 Y97D one-arm antibody (antibody, human IgG1, kappa, L234A L235A, N297A, name in Kabat numbering)
heavy: B1 heavy with A103D
chain: B1 chain
light: B1 light

ratio of amounts bound (altered form / CE115HA000) [1]: 0.62
B15: CE115HA000 Y100aA one-arm antibody (antibody, human IgG1, kappa, L234A L235A, N297A, name in Kabat numbering)
heavy: B1 heavy with A103Y, Y107A
chain: B1 chain
light: B1 light

ratio of amounts bound (altered form / CE115HA000) [1]: 0.18
B16: CE115HA000 Y97G one-arm antibody (antibody, human IgG1, kappa, L234A L235A, N297A, name in Kabat numbering)
heavy: B1 heavy with A103G
chain: B1 chain
light: B1 light

KD ratio (KD of CE115HA000/KD of altered form) [2]: 0.95
B17: CE115HA000 A52aV (antibody, human IgG1, kappa, L234A L235A, N297A, name in Kabat numbering)
heavy: B1 heavy with A53V, A103Y
chain: B1 chain
light: B1 light
notes: one-arm antibody

ratio of amounts bound (altered form / CE115HA000) [1]: 0.11
B18: CE115HA000 Y97P one-arm antibody (antibody, human IgG1, kappa, L234A L235A, N297A, name in Kabat numbering)
heavy: B1 heavy with A103P
chain: B1 chain
light: B1 light

ratio of amounts bound (altered form / CE115HA000) [1]: 0.48
B19: CE115HA000 Y100aL one-arm antibody (antibody, human IgG1, kappa, L234A L235A, N297A, name in Kabat numbering)
heavy: B1 heavy with A103Y, Y107L
chain: B1 chain
light: B1 light

ratio of amounts bound (altered form / CE115HA000) [1]: 0.56
B20: CE115HA000 Y100aQ one-arm antibody (antibody, human IgG1, kappa, L234A L235A, N297A, name in Kabat numbering)
heavy: B1 heavy with A103Y, Y107Q
chain: B1 chain
light: B1 light

KD ratio (KD of CE115HA000/KD of altered form) [2]: 0.89
B21: CE115HA000 A52aE (antibody, human IgG1, kappa, L234A L235A, N297A, name in Kabat numbering)
heavy: B1 heavy with A53E, A103Y
chain: B1 chain
light: B1 light
notes: one-arm antibody

ratio of amounts bound (altered form / CE115HA000) [1]: 0.87
B22: CE115HA000 Y100aF one-arm antibody (antibody, human IgG1, kappa, L234A L235A, N297A, name in Kabat numbering)
heavy: B1 heavy with A103Y, Y107F
chain: B1 chain
light: B1 light

KD ratio (KD of CE115HA000/KD of altered form) [2]: 0.61
B23: CE115HA000 A52aG (antibody, human IgG1, kappa, L234A L235A, N297A, name in Kabat numbering)
heavy: B1 heavy with A53G, A103Y
chain: B1 chain
light: B1 light
notes: one-arm antibody

ratio of amounts bound (altered form / CE115HA000) [1]: 0.6
B24: CE115HA000 Y100V one-arm antibody (antibody, human IgG1, kappa, L234A L235A, N297A, name in Kabat numbering)
heavy: B1 heavy with A103Y, Y106V
chain: B1 chain
light: B1 light

ratio of amounts bound (altered form / CE115HA000) [1]: 0.81
B25: CE115HA000 Y100S one-arm antibody (antibody, human IgG1, kappa, L234A L235A, N297A, name in Kabat numbering)
heavy: B1 heavy with A103Y, Y106S
chain: B1 chain
light: B1 light

ratio of amounts bound (altered form / CE115HA000) [1]: 1.23
B26: CE115HA000 Y100aG one-arm antibody (antibody, human IgG1, kappa, L234A L235A, N297A, name in Kabat numbering)
heavy: B1 heavy with A103Y, Y107G
chain: B1 chain
light: B1 light

KD ratio (KD of CE115HA000/KD of altered form) [2]: 5
B27: CE115HA000 A52aP (antibody, human IgG1, kappa, L234A L235A, N297A, name in Kabat numbering)
heavy: B1 heavy with A53P, A103Y
chain: B1 chain
light: B1 light
notes: one-arm antibody

ratio of amounts bound (altered form / CE115HA000) [1]: 0.48
B28: CE115HA000 Y100P one-arm antibody (antibody, human IgG1, kappa, L234A L235A, N297A, name in Kabat numbering)
heavy: B1 heavy with A103Y, Y106P
chain: B1 chain
light: B1 light

ratio of amounts bound (altered form / CE115HA000) [1]: 1.03
B29: CE115HA000 Y100W one-arm antibody (antibody, human IgG1, kappa, L234A L235A, N297A, name in Kabat numbering)
heavy: B1 heavy with A103Y, Y106W
chain: B1 chain
light: B1 light

ratio of amounts bound (altered form / CE115HA000) [1]: 0.7
B30: CE115HA000 Y100L one-arm antibody (antibody, human IgG1, kappa, L234A L235A, N297A, name in Kabat numbering)
heavy: B1 heavy with A103Y, Y106L
chain: B1 chain
light: B1 light

ratio of amounts bound (altered form / CE115HA000) [1]: 0.9
B31: CE115HA000 Y100aK one-arm antibody (antibody, human IgG1, kappa, L234A L235A, N297A, name in Kabat numbering)
heavy: B1 heavy with A103Y, Y107K
chain: B1 chain
light: B1 light

ratio of amounts bound (altered form / CE115HA000) [1]: 1.07
B32: CE115HA000 Y100G one-arm antibody (antibody, human IgG1, kappa, L234A L235A, N297A, name in Kabat numbering)
heavy: B1 heavy with A103Y, Y106G
chain: B1 chain
light: B1 light
